The record followed here is patent US20260166131A1, “METHOD FOR PROMOTING PATHOLOGICAL TDP-43 PROTEIN DEGRADATION, AND DRUG” (TALENGEN INTERNATIONAL LIMITED, priority 2022, published 2026).

Series [1] has as its target T1, TDP-43 (Homo sapiens, UniProt Q13148).
T1 construct: purchased Nanjing GenScript Biotechnology Co., Ltd. C134WHE160-2/P5HF001
The experiment in a line: Cleavage of TDP-43 protein in brain homogenate of ALS model (SOD1-G93A) mice (Western blot). The class given is biochemical. Particulars: SOD1-G93A mouse brain homogenate + recombinant TDP-43, 37° C. 3 h, vs vehicle control group. The method, then: Four B6.Cg-Tg (SOD1-G93A) 1Gur/J transgenic male mice (referred to as SOD1-G93A transgenic mice) were sacrificed, and the whole brain was taken out to weigh. 1×PBS was added at 150 mg tissue/mL PBS (Thermo Fisher, pH 7.4; 10010-031) to homogenize at 4° C. (1 min, 3-4 times). After homogenization, the supernatant, i.e., the brain homogenate was taken out to place in a new EP tube.
Eppendorf (EP) tubes were set as: (1) blank group, (2) blank control group, (3) vehicle control group, and (4) plasminogen group, with 5 parallels in each group. The blank group was added with 21.5 μL of normal saline, 4.6 μL of vehicle solution (10 mM sodium citrate, 2% arginine hydrochloride, 3% mannitol, pH 7.4), and 23.9 μL of mouse brain homogenate; the blank control group was added with 21.5 μL of normal saline, 2.3 μL of plasminogen solution (2 mg/mL), and 23.9 μL of mouse brain homogenate; the vehicle control group was added with 20.5 μL of TDP-43 (Nanjing GenScript Biotechnology Co., Ltd., custom-expressed human TDP-43, C134WHE160-2/P5HF001, 1.05 mg/mL), 4.6 μL of vehicle solution, and 23.9 μL of mouse brain homogenate; the plasminogen group was added with 20.5 μL of TDP-43 (1.05 mg/mL), 2.3 μL of plasminogen solution (2 mg/mL), and 23.9 μL of mouse brain homogenate. After adding the samples of each group, they were incubated at 37° C. for 3 h, and then 50 μL of 0.1% trifluoroacetic acid solution was added to terminate the reaction.
A 12% gel was prepared according to the SDS-PAGE gel preparation instructions. Each group of samples was mixed with 4× loading buffer (TaKaRa, e2139) at a volume ratio of 3:1, heating at 100° C. for 5 min, cooling and centrifuging for 2 min, and then 20 μL was taken for sample loading. […] After washing 4 times with TBST, the PVDF membrane was placed on a clean imaging plate, Immobilon Western HRP Substrate (MILLIPORE, WBKLS0100) was added for color development, and the membrane was photographed under a biomolecular imager, then performing quantitative analysis by using Image J.
Background: Immunoblotting shows a protein as a band on a membrane.

Series [2] is described as follows: Plasmin activity in brain homogenate of FAD mice (enzyme substrate kinetic method). The conditions noted are these: 2 hours. The series is classed as in vivo, mouse. The procedure:
85 μL/well of seven different concentrations of standard solution, blank, and sample were added to the ELISA plate (manufacturer: NUNC, catalog number: 446469) in sequence, and then 15 μL of 20 mM S-2251 solution (manufacturer: Chromogenix, catalog number: 82033239) was added to each well to incubate at 37° C. Starting from 0 min of reaction, the A405 absorbance value was read in a multifunctional microplate reader every 5 min until the reaction time was 90 min. All reactions were fitted with a straight line by time and absorbance, and the slope of the straight line was the reaction rate of the standard/sample (ΔA405/min). Finally, the potency value of the standard substance and ΔA405/min were used to create a standard curve to calculate the potency of the measured samples. The plasmin activity per unit of total protein in each sample was calculated.

Series [3] concerns TDP-43. The experiment in a line: TDP-43 in brain tissue of mice injected with TDP-43 in the brain and LPS (Western blot). The series is classed as in vivo. The conditions noted are these: C57BL/6J mice, hippocampal TDP-43 injection + LPS, 50 mg/kg tail vein for 3 days, vs vehicle group, P<0.05. The method, then: Nine C57BL/6J female mice aged 6-7 weeks were selected and weighed before modeling. After weighing, all mice were randomly divided into two groups: 3 mice in blank control group, and 6 mice in model group. After grouping, mice in the sham operation group and model group were anesthetized with intraperitoneal injection of tribromoethanol at a dose of 20 mL/kg. Model mice were located in the hippocampus according to the mouse stereotaxic atlas (based on the coordinates of the bregma: AP-2.54 mm, ML±2 mm, DV-2.4 mm), and each mouse was slowly microinjected bilaterally. Mice in the sham operation group were only drilled at the coordinate location point without injection. The mice in the model group were injected with TDP-43 solution at an injection rate of 0.5 μL/min and an injection volume of 3 μL/side. After the injection, the syringe stayed for 5 minutes and then slowly withdrew. Three days after the brain localization injection, all mice were weighed, and the mice in the model group were intraperitoneally injected with 5 mg/kg LPS solution according to their body weight. Then the mice in the model group were randomly divided into two groups: 3 mice in the plasminogen group and 3 mice in the vehicle group. […] The vehicle and plasminogen were administered continuously for 3 days. […] After homogenization, TDP-43 was detected by western blot.

Series [4] can be described thus: Human plasminogen level in nuclei of brain, spinal cord and kidney tissue of SOD1-G93A mice (ELISA). The series is classed as in vivo, mouse. The conditions noted are these: 50 mg/kg tail vein every day, 7 days, vs vehicle group, P<0.001. The method, then:
Ten 9-week-age SOD1-G93A mice were randomly divided into two groups: a vehicle group and a plasminogen group, with 5 mice in each group. Five C57 mice of the same week-age were selected as normal control mice. […] The vehicle and plasminogen were administered continuously for 7 days. The mice were killed 7 days later, and brain, spinal cord and kidney tissues were collected. The tissue was cut into small pieces to digest with 0.25% trypsin (Beyotime Biotechnology, C0201-500 mL), then filtering with a 200-mesh cell sieve to obtain a single cell suspension. […] The extracted nuclear protein was tested for human plasminogen level by ELISA.
Background: In an ELISA, binding on a coated surface is turned into a signal by an enzyme label.

T1 sequence (Q13148 whole entry): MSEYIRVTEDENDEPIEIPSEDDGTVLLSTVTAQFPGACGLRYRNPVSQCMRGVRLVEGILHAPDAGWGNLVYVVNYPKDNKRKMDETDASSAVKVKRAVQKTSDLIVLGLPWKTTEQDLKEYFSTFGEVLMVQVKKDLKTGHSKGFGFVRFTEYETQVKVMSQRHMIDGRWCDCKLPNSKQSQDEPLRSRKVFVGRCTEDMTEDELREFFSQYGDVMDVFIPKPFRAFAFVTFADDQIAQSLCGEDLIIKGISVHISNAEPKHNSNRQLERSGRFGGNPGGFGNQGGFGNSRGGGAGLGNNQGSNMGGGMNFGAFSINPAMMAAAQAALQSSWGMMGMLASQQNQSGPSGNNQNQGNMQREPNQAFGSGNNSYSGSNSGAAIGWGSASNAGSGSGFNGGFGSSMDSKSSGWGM

B1: plasminogen: human plasminogen purified from human donor plasma, in which human Lys-plasminogen and Glu-plasminogen are >98% (protein)
chain: KVYLSECKTGNGKNYRGTMSKTKNGITCQKWSSTSPHRPRFSPATHPSEGLEENYCRNPDNDPQGPWCYTTDPEKRYDYCDILECEEECMHCSGENYDGKISKTMSGLECQAWDSQSPHAHGYIPSKFPNKNLKKNYCRNPDRELRPWCFTTDPNKRWELCDIPRCTTPPPSSGPTYQCLKGTGENYRGNVAVTVSGHTCQHWSAQTPHTHNRTPENFPCKNLDENYCRNPDGKRAPWCHTTNSQVRWEYCKIPSCDSSPVSTEQLAPTAPPELTPVVQDCYHGDGQSYRGTSSTTTTGKKCQSWSSMTPHRHQKTPENYPNAGLTMNYCRNPDADKGPWCFTTDPSVRWEYCNLKKCSGTEASVVAPPPVVLLPDVETPSEEDCMFGNGKGYRGKRATTVTGTPCQDWAAQEPHRHSIFTPETNPRAGLEKNYCRNPDGDVGGPWCYTTNPRKLYDYCDVPQCAAPSFDCGKPQVEPKKCPGRVVGGCVAHPHSWPWQVSLRTRFGMHFCGGTLISPEWVLTAAHCLEKSPRPSSYKVILGAHQEVNLEPHVQEIEVSRLFLEPTRKDIALLKLSSPAVITDKVIPACLPSPNYVVADRTECFITGWGETQGTFGAGLLKEAQLPVIENKVCNRYEFLNGRVQSTELCAGHLAGGTDSCQGDSGGPLVCFEKDKYILQGVTSWGLGCARPNKPGVYVRVSRFVTWIEGVMRNN
For the molecule B1, in the series with TDP-43 [1], the “amount of TDP-43 monomer” value was “significantly lower”, the “amount of high molecular weight TDP-43 protein (HMW)” value is given as “significantly lower” and the “amount of low molecular weight TDP-43 fragment (LMW)” value is “significantly lower”. Also, the “plasmin activity level in brain tissue” value in series [2] (tail vein injection of 6 mg/kg, 6 mg/kg) was “increases significantly”. Moreover, in series [2] (tail vein injection of 50 mg/kg, 50 mg/kg), the “plasmin activity level in brain tissue” value is on record as “increases significantly”. Also, the “level in brain tissue, 50 mg/kg group compared with 6 mg/kg group” value in series [2] (tail vein) is “significantly higher”. Besides, in the series with TDP-43 [3], the “amount of TDP-43 monomer in brain tissue” value was “significantly lower” and the “amount of low molecular weight TDP-43 in brain tissue” value is “significantly lower”. In addition, in series [4], the “level of human plasminogen in the nuclei of brain tissue” value was “significantly higher”, the “level of human plasminogen in the nuclei of kidney tissue” value is reported as “significantly higher” and the “level of human plasminogen in the nuclei of spinal cord tissue” value is on record as “significantly higher”.
